# Results from patent US20150045540A1 (published 2015).
# T1: Placenta Growth Factor (PlGF), human (human, UniProt P49763 21-149)
# T1 chain: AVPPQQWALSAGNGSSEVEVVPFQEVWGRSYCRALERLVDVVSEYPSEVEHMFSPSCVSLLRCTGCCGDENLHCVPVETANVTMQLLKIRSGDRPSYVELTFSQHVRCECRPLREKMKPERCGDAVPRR
# What was measured:
# [1] = target: Hepatocyte Growth Factor (HGF), human (human, UniProt P14210 32-728); test: ELISA
# [2] = target: T1, Placenta Growth Factor (PlGF), human; test: ELISA
# Hepatocyte Growth Factor (HGF), human, sequence (P14210 32-728): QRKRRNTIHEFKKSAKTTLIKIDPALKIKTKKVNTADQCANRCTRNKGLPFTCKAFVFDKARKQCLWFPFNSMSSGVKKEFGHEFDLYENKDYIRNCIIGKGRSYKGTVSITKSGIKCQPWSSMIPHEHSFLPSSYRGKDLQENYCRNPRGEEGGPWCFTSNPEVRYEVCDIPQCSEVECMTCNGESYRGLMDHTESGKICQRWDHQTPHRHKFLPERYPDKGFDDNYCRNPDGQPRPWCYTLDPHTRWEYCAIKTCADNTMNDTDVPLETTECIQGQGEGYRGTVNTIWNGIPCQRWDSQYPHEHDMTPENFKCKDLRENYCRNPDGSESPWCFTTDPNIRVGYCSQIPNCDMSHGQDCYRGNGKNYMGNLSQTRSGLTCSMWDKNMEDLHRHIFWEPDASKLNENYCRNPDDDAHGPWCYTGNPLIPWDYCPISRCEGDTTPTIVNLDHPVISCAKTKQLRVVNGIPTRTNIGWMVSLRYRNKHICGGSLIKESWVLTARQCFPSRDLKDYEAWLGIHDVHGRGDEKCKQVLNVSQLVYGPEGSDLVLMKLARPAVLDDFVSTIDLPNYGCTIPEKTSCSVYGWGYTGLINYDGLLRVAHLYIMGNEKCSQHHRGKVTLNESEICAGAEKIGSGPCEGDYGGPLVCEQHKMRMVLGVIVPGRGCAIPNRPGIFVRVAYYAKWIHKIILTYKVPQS
EC50 [1] [nM],EC50 [2] [nM],Binder
0.056,0.129,HC 5/SLC 7 (antibody) chain 1: GQGTLVTVSSASTKGQPVLHQPPAMSSALGTTIRLTCTLRNDHDIGVYSVYWYQQRPGHPPRFLLRYFSQSDKSQGPQVPPRFSGSKDVARNRGYLSISELQPEDEAMYYCAMGARSRCWPRGFQSKHNSVTHVFGSGTQLTVLSQPKATPSVTLFPPSSEELQANKATLVCLMNDFYPGILTVTWKADGTPITQGVEMTTPSKQSNNKYAASSYLSLTPEQWRSRRSYSCQVMHEGSTVEKTVAPAECS chain 2: MSWAPVLLMLFVYCTGCGPQPVLHQPPAMSSALGTTIRLTCTLRNDHDIGVYSVYWYQQRPGHPPRFLLRYFSQSDKSQGPQVPPRFSGSKDVARNRGYLSISVTHVFGSGTQLTVLSQPKATPQVQLVQ
0.051,0.197,HC 5/SLC 2 (antibody) chain 1: GQGTLVTVSSASTKGQPVLHQPPAMSSALGTTIRLTCTLRNDHDIGVYSVYWYQQRPGHPPRFLLRYFSQSDKSQGPQVPPRFSGSKDVARNRGYLSISELQPEDEAMYYCAMGARSRCWPRGFQSKHNSVTHVFGSGTQLTVLSQPKATPSVTLFPPSSEELQANKATLVCLMNDFYPGILTVTWKADGTPITQGVEMTTPSKQSNNKYAASSYLSLTPEQWRSRRSYSCQVMHEGSTVEKTVAPAECS chain 2: MSWAPVLLMLFVYCTGCGPQPVLHQPPAMSSALGTTIRLTCTLRNDHDIGVYSVYWYQQRPGHPPRFLLRYFSQSDKSQGPQVPPRFSGSKDVARNRGYLSISVTHVFGSGTQLTVLSQQVQLVQ
~0.041,0.049,HC 5/SLC 15 (antibody) chain 1: GQGTLVTVSSASTKGQPVLHQPPAMSSALGTTIRLTCTLRNDHDIGVYSVYWYQQRPGHPPRFLLRYFSQSDKSQGPQVPPRFSGSKDVARNRGYLSISELQPEDEAMYYCAMGARSRCWPRGFQSKHNSVTHVFGSGTQLTVLSQPKATPSVTLFPPSSEELQANKATLVCLMNDFYPGILTVTWKADGTPITQGVEMTTPSKQSNNKYAASSYLSLTPEQWRSRRSYSCQVMHEGSTVEKTVAPAECS chain 2: MSWAPVLLMLFVYCTGCGPQPVLHQPPAMSSALGTTIRLTCTLRNDHDIGVYSVYWYQQRPGHPPRFLLRYFSQSDKSQGPQVPPRFSGSKDVARNRGYLSISVTHVFGSGTQLTVLSQPKATPSVTGGGGSQVQLVQ
0.054,0.159,HC 3/SLC 7 (antibody) chain 1: GQGTLVTVSSASTQPVLHQPPAMSSALGTTIRLTCTLRNDHDIGVYSVYWYQQRPGHPPRFLLRYFSQSDKSQGPQVPPRFSGSKDVARNRGYLSISELQPEDEAMYYCAMGARSRCWPRGFQSKHNSVTHVFGSGTQLTVLSQPKATPSVTLFPPSSEELQANKATLVCLMNDFYPGILTVTWKADGTPITQGVEMTTPSKQSNNKYAASSYLSLTPEQWRSRRSYSCQVMHEGSTVEKTVAPAECS chain 2: MSWAPVLLMLFVYCTGCGPQPVLHQPPAMSSALGTTIRLTCTLRNDHDIGVYSVYWYQQRPGHPPRFLLRYFSQSDKSQGPQVPPRFSGSKDVARNRGYLSISVTHVFGSGTQLTVLSQPKATPQVQLVQ
0.059,0.157,HC 5/SLC 6 (antibody) chain 1: GQGTLVTVSSASTKGQPVLHQPPAMSSALGTTIRLTCTLRNDHDIGVYSVYWYQQRPGHPPRFLLRYFSQSDKSQGPQVPPRFSGSKDVARNRGYLSISELQPEDEAMYYCAMGARSRCWPRGFQSKHNSVTHVFGSGTQLTVLSQPKATPSVTLFPPSSEELQANKATLVCLMNDFYPGILTVTWKADGTPITQGVEMTTPSKQSNNKYAASSYLSLTPEQWRSRRSYSCQVMHEGSTVEKTVAPAECS chain 2: MSWAPVLLMLFVYCTGCGPQPVLHQPPAMSSALGTTIRLTCTLRNDHDIGVYSVYWYQQRPGHPPRFLLRYFSQSDKSQGPQVPPRFSGSKDVARNRGYLSISVTHVFGSGTQLTVLSQPKATQVQLVQ
0.059,0.073,HC 6/SLC 8 (antibody) chain 1: GQGTLVTVSSASTKGPQPVLHQPPAMSSALGTTIRLTCTLRNDHDIGVYSVYWYQQRPGHPPRFLLRYFSQSDKSQGPQVPPRFSGSKDVARNRGYLSISELQPEDEAMYYCAMGARSRCWPRGFQSKHNSVTHVFGSGTQLTVLSQPKATPSVTLFPPSSEELQANKATLVCLMNDFYPGILTVTWKADGTPITQGVEMTTPSKQSNNKYAASSYLSLTPEQWRSRRSYSCQVMHEGSTVEKTVAPAECS chain 2: MSWAPVLLMLFVYCTGCGPQPVLHQPPAMSSALGTTIRLTCTLRNDHDIGVYSVYWYQQRPGHPPRFLLRYFSQSDKSQGPQVPPRFSGSKDVARNRGYLSISVTHVFGSGTQLTVLSQPKATPSQVQLVQ
0.048,0.046,HC 10/SLC 8 (antibody) chain 1: GQGTLVTVSSASTKGPSVFPQPVLHQPPAMSSALGTTIRLTCTLRNDHDIGVYSVYWYQQRPGHPPRFLLRYFSQSDKSQGPQVPPRFSGSKDVARNRGYLSISELQPEDEAMYYCAMGARSRCWPRGFQSKHNSVTHVFGSGTQLTVLSQPKATPSVTLFPPSSEELQANKATLVCLMNDFYPGILTVTWKADGTPITQGVEMTTPSKQSNNKYAASSYLSLTPEQWRSRRSYSCQVMHEGSTVEKTVAPAECS chain 2: MSWAPVLLMLFVYCTGCGPQPVLHQPPAMSSALGTTIRLTCTLRNDHDIGVYSVYWYQQRPGHPPRFLLRYFSQSDKSQGPQVPPRFSGSKDVARNRGYLSISVTHVFGSGTQLTVLSQPKATPSQVQLVQ
0.056,0.157,HC 3/SLC 8 (antibody) chain 1: GQGTLVTVSSASTQPVLHQPPAMSSALGTTIRLTCTLRNDHDIGVYSVYWYQQRPGHPPRFLLRYFSQSDKSQGPQVPPRFSGSKDVARNRGYLSISELQPEDEAMYYCAMGARSRCWPRGFQSKHNSVTHVFGSGTQLTVLSQPKATPSVTLFPPSSEELQANKATLVCLMNDFYPGILTVTWKADGTPITQGVEMTTPSKQSNNKYAASSYLSLTPEQWRSRRSYSCQVMHEGSTVEKTVAPAECS chain 2: MSWAPVLLMLFVYCTGCGPQPVLHQPPAMSSALGTTIRLTCTLRNDHDIGVYSVYWYQQRPGHPPRFLLRYFSQSDKSQGPQVPPRFSGSKDVARNRGYLSISVTHVFGSGTQLTVLSQPKATPSQVQLVQ
0.063,0.195,HC 2/SLC 9 (antibody) chain 1: GQGTLVTVSSASQPVLHQPPAMSSALGTTIRLTCTLRNDHDIGVYSVYWYQQRPGHPPRFLLRYFSQSDKSQGPQVPPRFSGSKDVARNRGYLSISELQPEDEAMYYCAMGARSRCWPRGFQSKHNSVTHVFGSGTQLTVLSQPKATPSVTLFPPSSEELQANKATLVCLMNDFYPGILTVTWKADGTPITQGVEMTTPSKQSNNKYAASSYLSLTPEQWRSRRSYSCQVMHEGSTVEKTVAPAECS chain 2: MSWAPVLLMLFVYCTGCGPQPVLHQPPAMSSALGTTIRLTCTLRNDHDIGVYSVYWYQQRPGHPPRFLLRYFSQSDKSQGPQVPPRFSGSKDVARNRGYLSISVTHVFGSGTQLTVLSQPKATPSVQVQLVQ
0.058,0.046,HC 9/SLC 9 (antibody) chain 1: GQGTLVTVSSASTKGPSVFQPVLHQPPAMSSALGTTIRLTCTLRNDHDIGVYSVYWYQQRPGHPPRFLLRYFSQSDKSQGPQVPPRFSGSKDVARNRGYLSISELQPEDEAMYYCAMGARSRCWPRGFQSKHNSVTHVFGSGTQLTVLSQPKATPSVTLFPPSSEELQANKATLVCLMNDFYPGILTVTWKADGTPITQGVEMTTPSKQSNNKYAASSYLSLTPEQWRSRRSYSCQVMHEGSTVEKTVAPAECS chain 2: MSWAPVLLMLFVYCTGCGPQPVLHQPPAMSSALGTTIRLTCTLRNDHDIGVYSVYWYQQRPGHPPRFLLRYFSQSDKSQGPQVPPRFSGSKDVARNRGYLSISVTHVFGSGTQLTVLSQPKATPSVQVQLVQ
0.046,0.119,HC 2/SLC 8 (antibody) chain 1: GQGTLVTVSSASQPVLHQPPAMSSALGTTIRLTCTLRNDHDIGVYSVYWYQQRPGHPPRFLLRYFSQSDKSQGPQVPPRFSGSKDVARNRGYLSISELQPEDEAMYYCAMGARSRCWPRGFQSKHNSVTHVFGSGTQLTVLSQPKATPSVTLFPPSSEELQANKATLVCLMNDFYPGILTVTWKADGTPITQGVEMTTPSKQSNNKYAASSYLSLTPEQWRSRRSYSCQVMHEGSTVEKTVAPAECS chain 2: MSWAPVLLMLFVYCTGCGPQPVLHQPPAMSSALGTTIRLTCTLRNDHDIGVYSVYWYQQRPGHPPRFLLRYFSQSDKSQGPQVPPRFSGSKDVARNRGYLSISVTHVFGSGTQLTVLSQPKATPSQVQLVQ
0.056,0.283,HC 7/SLC 5 (antibody) chain 1: GQGTLVTVSSASTKGPSQPVLHQPPAMSSALGTTIRLTCTLRNDHDIGVYSVYWYQQRPGHPPRFLLRYFSQSDKSQGPQVPPRFSGSKDVARNRGYLSISELQPEDEAMYYCAMGARSRCWPRGFQSKHNSVTHVFGSGTQLTVLSQPKATPSVTLFPPSSEELQANKATLVCLMNDFYPGILTVTWKADGTPITQGVEMTTPSKQSNNKYAASSYLSLTPEQWRSRRSYSCQVMHEGSTVEKTVAPAECS chain 2: MSWAPVLLMLFVYCTGCGPQPVLHQPPAMSSALGTTIRLTCTLRNDHDIGVYSVYWYQQRPGHPPRFLLRYFSQSDKSQGPQVPPRFSGSKDVARNRGYLSISVTHVFGSGTQLTVLSQPKAQVQLVQ
0.053,0.052,HC 7/SLC 15 (antibody) chain 1: GQGTLVTVSSASTKGPSQPVLHQPPAMSSALGTTIRLTCTLRNDHDIGVYSVYWYQQRPGHPPRFLLRYFSQSDKSQGPQVPPRFSGSKDVARNRGYLSISELQPEDEAMYYCAMGARSRCWPRGFQSKHNSVTHVFGSGTQLTVLSQPKATPSVTLFPPSSEELQANKATLVCLMNDFYPGILTVTWKADGTPITQGVEMTTPSKQSNNKYAASSYLSLTPEQWRSRRSYSCQVMHEGSTVEKTVAPAECS chain 2: MSWAPVLLMLFVYCTGCGPQPVLHQPPAMSSALGTTIRLTCTLRNDHDIGVYSVYWYQQRPGHPPRFLLRYFSQSDKSQGPQVPPRFSGSKDVARNRGYLSISVTHVFGSGTQLTVLSQPKATPSVTGGGGSQVQLVQ
